Sequences and labels used below:
T1: human CD3 expressed on cells (Jurkat, a CD3+ human T-cell line; human T cells) (human, UniProt P07766 23-126; P04234 22-100)
T1 chain 1: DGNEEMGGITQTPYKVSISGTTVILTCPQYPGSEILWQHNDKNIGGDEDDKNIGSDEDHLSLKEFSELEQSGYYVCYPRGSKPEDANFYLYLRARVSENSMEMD
T1 chain 2: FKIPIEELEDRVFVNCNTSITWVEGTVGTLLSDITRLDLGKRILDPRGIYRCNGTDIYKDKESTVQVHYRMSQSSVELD

B1: H1H5755B (antibody, human IgG1, V domains shown)
VH: EVQLVESGGGVVQPGRSLRLSCAASGFTFSNYGMHWVRQAPGKGLEWVTVILHDGSYKYYADSVKGRFTISRDNSKNTLHLQMNSLRTEDTAVYYCAKGPMFRGVPYNHYYGMDVWGQGTTVTVSS
VL: DIQMTQSPSSLSASVGDRVTITCRASQGIRNDLGWYQQKPGKAPKRLIYAASSLQSGVSSRFSGSGSGTEFTLTISSLQPEDFATYYCLQHNSYPYTFGQGTKVEIKR
B2: H1H5757B (antibody, human IgG1, V domains shown)
VH: B1 VH with N31S, Y57N, K58R, Y60S, H80Y, S85I, T88V, A97T, P100A, F102V
VL: B1 VL with S53I, S59P, V104L
B3: H1H5788P (antibody, V domains shown)
VH: EVQLVESGGGLVQPGRSLRLSCAASGFTFDDYTMHWVRQAPGKGLEWVSGISWNSGSIGYADSVKGRFTISRDNAKNSLYLQMNSLRAEDTALFYCAKDQSGYGHYYYGMDVWGQGTTVTVSS
VL: EIVMTQSPATLSVSPGERATLSCRASQSVSSNLAWYQQKPGQAPRLLIYGASTRATDIPARFSGSGSGTEFTLTISSLQSEDFAVYHCQQYNNWPLTFGGGTKVEIK
B4: H1H5752P (antibody, human IgG1, V domains shown)
VH: QVQLVESGGGVVQPGRSLRPSCAASGFSFRDYGMHWVRQAPGKGLEWMAHIWYNGKNKYYADSVKGRFTISRDNSKNTLYLQMNSLRPEDTAVYYCARDGVSARGTPFDYWGQGTLVTVSS
VL: ETTLTQSPAFMSAAPGDKVSISCIASQYIDDDVNWYQQKPGETAIFIIQEASTLVPGISPRFSGSGYGTHFTLTINNIDSEDAAFYFCLQHDNFPYTFGQGTKLEIK
B5: H2M3547N (antibody, mouse IgG2, V domains shown)
VH: EAQLVESGGGLVQPGRSLRLSCTTSGFTFDDYTMHWVRQAPGKGLEWISDISWNGGTKGYADSVKGRFTISRDNAKNSLYLQMDSLRGEDTALYYCVKDKSGYGHFYFGLDVWGQGTTVTVSS
VL: DIQMTQSPSSLTASVGDRVTFTCRASQSISRHLSWYQQKPGKAPKLLIYAASSLESGVPSRFSGSGSGTDFTLTISSLHPEDFATYYCQQSYSNPPITFGQGTRLEIK
B6: H2M3540N (antibody, mouse IgG2, V domains shown)
VH: QVHLEESGGGVVQPGRSLRLSCSASGFTFSSYAMHWVRQAPGKGLEWVAVIWYDGTNKYYLDSVKGRFTISRDNSKNTLFLQMNSLRAEDTAVYYCARDRGSIITHWGQGTLVTVSS
VL: DIQMTQSPSSLSASIGDRVTITCRASQNISSYLNWYQQKPGKAPKLLIYAASSLQSGVPSRFSGSGSGTDFTLTISSLQPEDFATYYCQQTYSTPPITFGQGTRLEIK
B7: H2M3543N (antibody, mouse IgG2, V domains shown)
VH: EVQLVESGGGLVQPGRSLRLSCAASGFTFDDYTMHWVRQAPGKGLEWVSDISWNSGSIGYADSVKGRFTVSRDNAKNSLYLQMNSLRGEDTALYYCAKDMSGYAHYGYYGMDVWGQGTTVTVSS
VL: B6 VL with I15V, N28S, S30R, S31N, A43V, T91S, T94N
B8: H2M3563N (antibody, mouse IgG2, V domains shown)
VH: B7 VH with Q3H, A104G, Y108K
VL: B6 VL with I15V, N28S, S30R, A43V, S76N, E81D, T94N
B9: H2M3548N (antibody, mouse IgG2, V domains shown)
VH: B3 VH with T28K, D30A, T33A, G50E, A61V, F94Y, A97V, Q100K, Y108I, T120I
VL: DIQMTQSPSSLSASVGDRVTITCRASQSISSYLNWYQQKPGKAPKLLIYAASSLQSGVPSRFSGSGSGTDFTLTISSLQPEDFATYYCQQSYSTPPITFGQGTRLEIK
B10: H2M2690N (antibody, mouse IgG2, V domains shown)
VH: B3 VH with N77K, F94Y, Q100N, S122A
VL: B3 VL with D57G, H87Y, Q90H, N92I
B11: H2M2779N (antibody, V domains shown)
VH: B3 VH with R16G, S25T, Y32F, A61V, F94Y, Q100N, H105Y
VL: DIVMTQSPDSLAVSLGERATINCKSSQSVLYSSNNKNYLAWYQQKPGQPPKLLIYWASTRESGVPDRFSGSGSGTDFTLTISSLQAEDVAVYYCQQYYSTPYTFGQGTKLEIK
B12: H2M2862N (antibody, mouse IgG2, V domains shown)
VH: QVQLVESGGGVVQPGRSLRLSCAASGFTFRSYGMHWVRQAPGKGLEWVAMIYYDGNNKKYADSVRGRFTISRDNSKNTLYLQMNSLRVEDTAVYFCARGPGYNWLDPWGQGTLVTVSS
VL: B3 VL with S31R, T72I, T74N, V85L, H87Y, N92S, K103E
B13: H2M2707N (antibody, mouse IgG2, V domains shown)
VH: B12 VH with A23I, K59Y, V88A, E89D
VL: B3 VL with D57G, H87Y, W94R
B14: H2M2706N (antibody, mouse IgG2, V domains shown)
VH: B12 VH with G33A, I51V, K58Q, K59Y, V88A, E89D
VL: B3 VL with S31R, D57G, E70D, H87Y, E105V
B15: H1M2712N (antibody, mouse IgG1, V domains shown)
VH: B3 VH with R16G, S25T, Y32F, A61V, F94Y, Q100N, H105Y
VL: B3 VL with Q27H, S31R, L33S, D57G, V85I, H87Y
B16: H2M2774N (antibody, mouse IgG2, V domains shown)
VH: B12 VH with A23V, E46Q, N56K, K59Y, V88A, V93M
VL: B3 VL with S28R, V29I, D57G, I58S, F83V, H87Y, Y91H
B17: H2M2777N (antibody, mouse IgG2, V domains shown)
VH: B12 VH with A23I, K59Y, V88A, E89D
VL: B3 VL with D57G, H87Y, W94R
B18: H2M2708N (antibody, mouse IgG2, V domains shown)
VH: B12 VH with Y32F, K43R, Y53F, N56K, K59Y, Q82E, N84S, V88A
VL: B3 VL with A19V, V29I, S31R, D57G, I58V, Y86F, W94R, K103E
B19: H2M2691N (antibody, mouse IgG2, V domains shown)
VH: B3 VH with N77K, F94Y, Q100N, S122A
VL: B3 VL with D57G, H87Y, Q90H, N92I
B20: H1M2692N (antibody, mouse IgG1, V domains shown)
VH: EVQLVESGGGLVQPGGSLRLSCAASGFSFDDYTMHWVRQPPGKGLEWVSGISWNSGSIGYADSVKGRFTISRDNAKNSLYLQMNSLRAGDTALYYCAKDNSGYGYYYYYGMDVWGQGTTVTVSS
VL: B3 VL with D57G, H87Y, N92Y
B21: H2M2885N (antibody, mouse IgG2, V domains shown)
VH: B12 VH with Y32F, K43R, Y53F, N56K, K59Y, Q82E, N84S, V88A
VL: EIVMTQSPATLSVSPGERVILSCRASQSISRNLAWYQQKPGQAPRLLIYGATTRATGVPARFSGSGSGTEFTLTISSLQSEDFAVFYCQQYNNRPLTFGGGTEVEIK
B22: H2M2886N (antibody, mouse IgG2, V domains shown)
VH: B12 VH with Y32F, K43R, Y53F, N56K, K59Y, Q82E, N84S, V88A
VL: B21 VL
B23: H2M2775N (antibody, mouse IgG2, V domains shown)
VH: B12 VH with Y32F, K43R, Y53F, N56K, K59Y, Q82E, N84S, V88A
VL: B21 VL
B24: H2M2711N (antibody, V domains shown)
VH: B12 VH with Y32F, K43R, Y53F, N56K, K59Y, Q82E, N84S, V88A
VL: B21 VL with V19A, I20T, I29V, T52S, Y87H
B25: H2M2710N (antibody, V domains shown)
VH: B12 VH with Y32F, K43R, Y53F, N56K, K59Y, Q82E, N84S, V88A
VL: B21 VL with V19A, I20T, I29V, T52S, Y87H
B26: H2M3541N (antibody, mouse IgG2, V domains shown)
VH: B7 VH with Q13R, S57T, V70I, G88P, G107Y
VL: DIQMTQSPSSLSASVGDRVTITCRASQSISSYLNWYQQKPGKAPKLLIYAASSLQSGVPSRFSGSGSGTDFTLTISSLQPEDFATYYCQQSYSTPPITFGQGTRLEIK
B27: H1M3613N (antibody, mouse IgG1, V domains shown)
VH: B7 VH with R19K, A23T, D30A, A40G, I58K, V70I, G88T, G107Y, G110A, M111L
VL: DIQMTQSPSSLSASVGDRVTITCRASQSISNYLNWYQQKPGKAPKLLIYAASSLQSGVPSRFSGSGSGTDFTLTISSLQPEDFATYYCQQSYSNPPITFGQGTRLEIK
B28: H1M3542N (antibody, mouse IgG1, V domains shown)
VH: B7 VH with A23V, T28P, D30A, I58K, V70I, G88T, L93F, G107F
VL: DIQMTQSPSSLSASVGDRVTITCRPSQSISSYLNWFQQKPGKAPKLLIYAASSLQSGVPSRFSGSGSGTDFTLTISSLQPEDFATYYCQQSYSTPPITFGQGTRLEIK
B29: H1M3549N (antibody, mouse IgG1, V domains shown)
VH: B7 VH with A23V, T28P, D30A, V70I, G88T, G107F
VL: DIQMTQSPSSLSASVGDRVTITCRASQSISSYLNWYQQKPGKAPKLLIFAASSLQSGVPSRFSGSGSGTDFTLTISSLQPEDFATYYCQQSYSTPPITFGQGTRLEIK

Residue numbers refer to the chain shown, from its start.

One assay has as its target T1, human CD3 expressed on cells (Jurkat, a …). As to the kind of experiment: cell-based or functional assay.
B1: the “U937 Cytotoxicity Human T-cells [M] (EC50)” value came to 5.16e-11 M.
Take B2: the “U937 Cytotoxicity Human T-cells [M] (EC50)” value worked out at 9.65e-11 M.
Same read-out and setting: then B3, with 1.54e-11 M; and B4, with 1.85e-11 M.

Another assay shares this target. The assay can be described thus: cell-based or functional assay. The source holds these as a separate data set.
For the molecule B5, the “U937 Cytotoxicity Human T-cells [M] (EC50)” value is 3.17e-11 M.
B6: the “U937 Cytotoxicity Human T-cells [M] (EC50)” value amounted to 1.25e-11 M.
For B7, the “U937 Cytotoxicity Human T-cells [M] (EC50)” value amounted to 1.31e-11 M.
As to B8, the “U937 Cytotoxicity Human T-cells [M] (EC50)” value is 4.05e-11 M.
For the molecule B9, the “U937 Cytotoxicity Human T-cells [M] (EC50)” value is 5.5e-12 M.
On the same count and under the same terms, then B10, with 2.79e-11 M; and B11, with 6.75e-10 M.
On the same count and under the same terms, then B12, with 7.66e-12 M; and B13, with 7.21e-12 M; and B14, with 7.91e-12 M.
On the same count and under the same terms, then B15, with 3.14e-10 M; and B16, with 2.46e-12 M; and B17, with 4.86e-12 M.
With B18, the “U937 Cytotoxicity Human T-cells [M] (EC50)” value stood at 3.27e-12 M.
Still for that read-out and setting: then B19, with 2.34e-11 M; and B20, with 3.59e-10 M.
In the case of B21, the “U937 Cytotoxicity Human T-cells [M] (EC50)” value was determined as 3.71e-12 M.
On the same count and under the same terms, then B22, with 8.06e-12 M; and B23, with 3.38e-12 M.
Same read-out and setting: next, B24: 3.66e-12 M.
As for B25, the “U937 Cytotoxicity Human T-cells [M] (EC50)” value turned out to be 3.97e-12 M.
With B26, the “U937 Cytotoxicity Human T-cells [M] (EC50)” value was 5.39e-11 M.
Same read-out and setting: then B27, with 8.66e-10 M; and B28, with 2.92e-11 M.
Regarding B29, the “U937 Cytotoxicity Human T-cells [M] (EC50)” value came to 1.07e-10 M.

Values taken from patent US20260132200A1 (Regeneron, published 2026).
